Results published in patent publication US20020037538A1, “Compositions, kits, and methods for identification, assessment, prevention, and therapy of psoriasis” (priority 2000, published 2002).

Key:
psoriatic plaque = experiment: Psoriasis Severity Index (PSI) score at the lesion biopsy site during treatment (Example 3); format: in vivo, human; details: for PSI score: seen at weeks 8 and 12
Method: Three subjects with extensive psoriasis (>10% body surface area affected) were treated with […] of rhIL-11 subcutaneously every day for 8 weeks (Trepicchio et al. (1999) J. Clin. Invest. 104:1527-1537). The dose selection of rhIL-11 was based on the outcome of a clinical trial in subjects with Crohn's disease, where biological activity was observed. […] Upon enrollment, a psoriatic plaque was chosen for weekly assessment of lesion severity. […] In addition, before initiation of treatment, a 6-mm punch biopsy was taken from uninvolved skin at a location of the patent's choosing. Biopsies were equally divided for immunohistochemical analysis and for RNA preparation. Global clinical assessment of each subject was based on the Psoriasis Area and Severity Index (PASI) score in each subject before and during therapy as described previously (Gottlieb, et al. (1992) J. Invest. Dermatol. 98:302-309). The grading system used to measure local disease activity at the lesion biopsy site was the Psoriasis Severity Index (PSI). This index grades individual psoriasis lesions for scale, erythema, and induration on a 0- to 6- point scale for each parameter (0, absent, 1, trace, 2, mild, 3, mild to moderate, 4, moderate, 5, moderate to severe, and 6, severe). The final score is the sum of the individual parameters for a range of 0-18 (Fredriksson and Pettersson (1978) Dermatologica 157: 238-244; and Coven et al. (1997) Arch. Dermatol. 133:1514-1522). Histopathological assessment was performed on one-half of the 6-mm punch biopsy. […] Sections were reacted with antibodies to CD3, CD8, K16, Ki67, ICAM-1, or HLA-FR and processed for immunohistochemistry as described previously. Computer-assisted image analysis was used to quantify epidermal thickness and the number of CD3+, CD8+, or Ki67+ cells in tissue sections as described (Gottlieb et al. (1995) Nat. Med. 1:442-447).

[1] = system: marker genes in psoriatic lesional skin; experiment: GeneChip marker analysis of lesional skin biopsies during rhIL-11 or cyclosporin A treatment (Example 3); format: in vivo, human
Method: Labeled RNA was prepared from clones containing a T7 RNA polymerase promoter site by incorporating labeled ribonucleotides in an in vitro transcription (IVT) reaction. Either biotin-labeled or fluorescein-labeled UTP and CTP (1:3 labeled to unlabeled) plus unlabeled ATP and GTP were used for the reaction with 2500 U of T7 RNA polymerase. Following the reaction, unincorporated nucleotide triphosphates were removed using a size-selective membrane (Mircrocon-100, Amicon, Beverly, Mass.). The total molar concentration of RNA was based on a measurement of the absorbance at 260 nm. Following quantitation of RNA amounts, RNA was fragmented randomly to an average length of approximately 50 bases by heating at 94° C. in 40 mM Tris-acetate pH 8.1, 100 mM potassium acetate, 30 mM magnesium acetate, for 30 to 40 min. Fragmentation reduces possible interference from RNA secondary structure, and minimizes the effects of multiple interactions with closely spaced probe molecules. For material made directly from cellular RNA, cytoplasmic RNA was extracted from cells by the method of Favaloro et al. ((1980) Methods Enzymol. 65: 718-749), and poly (A) RNA was isolated with an oligo dT selection step (PolyAtract, Promega, Madison, Wis.). […] The total molar concentration of labeled cRNA was determined from the absorbance at 260 nm and assuming an average RNA size of 1000 ribonucleotides. […]
The hybridization solutions contained 0.9 M NaCl, 60 mM NaH2PO4, 6 mM EDTA, and 0.005% Triton X-100, adjusted to pH 7.6 (referred to as 6×SSPE-T). […] When biotin-labeled RNA was used, the hybridized RNA was stained with a streptavidin-phycoerythrin conjugate (Molecular Probes, Eugene, Oreg.) prior to reading. […] The arrays were read using a scanning confocal microscope made for Affy metrix by Molecular Dynamics (commercially available through Affymetrix, Santa Clara, Calif.) The scanner uses an argon ion laser as the excitation source, with the emission detected by a photomultiplier tube through either a 530 nm bandpass filter (fluorescein), or a 560 nm longpass filter (phycoerythrin). […]

plaque psoriasis = experiment: Response to therapy by clinical and histopathological criteria (Example 4); format: in vivo, human; details: treated for 8 weeks
Source text: (§1) Patients with extensive plaque psoriasis (>10% body surface area affected) were considered eligible for entry into the study. […] At the start of enrollment, a psoriatic plaque was chosen for weekly assessment of lesion severity scores by the study coordinator. A 6 mm punch biopsy was taken of this lesional skin prior to rhIL-11 or cyclosporin treatment and at weeks 1, 4, 8 and 12 during IL-11 or cyclosporin treatment. In addition, prior to initiation of treatment, a 6 mm punch biopsy was taken from uninvolved skin at a location of the patient's choosing. Biopsies were equally divided for immunohistochemical analysis and for RNA preparation. Normal skin was obtained from healthy volunteers.
Sections were reacted with antibodies to CD3, CD8, keratin 16, Ki67, ICAM-1, or HLA-DR and processed for immunohistochemistry as previously described (Trepicchio et al., supra). Computer-assisted image analysis was used to quantify epidermal thickness and the number of CD3+, CD8+, or Ki67+ cells in tissue sections as described. The grading system used to measure clinical disease activity was the PSI score, described above.
RhIL-11 was administered to patients by a subcutaneous route at either a dose of 5 ug/kg/day or a single 1 mg or 2 mg dose administered once weekly. Cyclopsorin A was administered at a dose of 5 μg/kg/day (Gottlieb et al., supra).

[2] = system: 165 genes differentially expressed between lesional and non-lesional skin; experiment: Gene chip / self-organizing map analysis of lesional skin over the course of drug treatment (Example 4); format: in vivo, human
Source text: as §1
Total RNA was isolated from 6 mm full thickness skin biopsies using the RNeasy mini kit (Qiagen, Hilden, Germany). 2 μg total RNA was converted to cDNA by priming with an oligo-dT primer containing a T7 RNA polymerase promoter at the 5′ end. RNA was reverse transcribed with 200 units Superscript RT II at 50° C. for 1 hour in 1×first-strand buffer, 10 mM DTT and 0.5 mM each dNTP (Gibco BRL, Gaithersburg, Md.). […] RNA was concentrated and the amount measured using a spectrophotometer. […]

[3] = system: S100A12, HBP17, K16, CCNF, SCYA2, PRKMK3, ID4, CST6 and TNXA mRNA; experiment: Quantitative RT-PCR of early responding genes in treated patients; format: in vivo, human; details: responding patients but not non-responding patients
Method: Quantitative RT-PCR was performed as previously described (Trepicchio et al., supra). RNA samples from patient biopsies were treated with 10U of RQ1 DNase I (Promega) for 30 minutes at 37° C. […] Sequence-specific amplification was detected as an increased fluorescent signal of 6-FAM during the amplification cycle. Quantitation of gene-specific message levels was based on a comparison of the fluorescent intensity in the unknown mRNA sample to the fluorescent intensity from a standard curve of known mRNA levels. […] Levels of gene-specific messages were graphed as normalized message units as determined from the standard curve. […]
Quantitative measures of gene expression changes were statistically evaluated using the JMP statistical discovery software package (SAS Institute, Inc., Cary, N.C.). […] Differences between non-lesional to lesional skin were analyzed using 2-tailed paired T-test. […]
Changes in gene expression levels that precede clinical improvement may identify genes that play a potential causative role in disease progression or may be early markers of clinical efficacy. Quantitative RT-PCR was used to analyze gene expression changes for these early responding genes in a larger patient population. […]

psoriasis patients = details: Trepicchio et al. (1999); cited from earlier work
[4] = system: proinflammatory cytokine production; details: in part through inhibition of NF-κKB nuclear translocation; Trepicchio et al. (1997); cited from earlier work

B1: rhIL-11: recombinant human IL-11, experimental immune modulatory cytokine (protein, UniProt P20809 22-199, looked up)
Interleukin-11: PGPPPGPPRVSPDPRAELDSTVLLTRSLLADTRQLAAQLRDKFPADGDHNLDSLPTLAMSAGALGALQLPGVLTRLRADLLSYLRHVQWLRRAGGSSLKTLEPELGTLQARLDRLLRRLQLLMSRLALPQPPPDPPAPPLAPPSSAWGGIRAAHAILGGLHLTLDWAVRGLLLLKTRL
response to the treatment as assessed by PSI scores (psoriatic plaque; Patient #202, rhIL-11): did not respond to the treatment
PSI scores (psoriatic plaque; Patient #202, rhIL-11 treatment, throughout the course of the study): 9-11
PSI score (psoriatic plaque; rhIL-11, first value of 'respectively' (Patient #203)): 4
PSI score (psoriatic plaque; rhIL-11, second value of 'respectively' (Patient #208)): 5
expression levels of the bulk of the markers ([1]; Patient #202, rhIL-11, throughout the study): similarly unchanged
expression of the preponderance of the markers ([1]; Patients #203 and 208, rhIL-11, by week 8 compared to the beginning of the study): decrease in expression at least two-fold
expression of the markers ([1]; Patients #203 and 208, rhIL-11, by week 12 compared to the beginning of the study): nearly all of the markers decreased in expression
patients considered to have responded to therapy (plaque psoriasis): 8 out of 15
differentially regulated genes that returned to normal or uninvolved levels at time points preceding clinical improvement ([2]; FIG. 6, Group I): 36 genes
levels of expression of 36 genes including HBP17, SCYA2, PRKMK3, GNA15, PHB and MTX ([2]; responding patients at week 1 of therapy, not in non-responding patients): change significantly
earliest time at which changes in gene expression were observed [3]: 1 week
activity in psoriasis patients (psoriasis patients): improve clinical and histopathological scores
proinflammatory cytokine production [4]: reduce proinflammatory cytokine production
